One test has as its target T1, LRP1 CR3-5 (Homo sapiens, UniProt Q07954).
T1 construct: made in house; host or cells: E. coli BL21(DE3) CodonPlus-RIPL, pET30(+)a
The experiment in a line: Solid phase binding assay. The method, then:
(§1) All expression constructs were sequenced to verify insert sequences and the junctions with the expression vector. Each plasmid was then used to transform BL21(DE3) CodonPlus-RIPL™ cells (Stratagene). Expression of the CR proteins was induced in logarithmic growth-phase cells grown in LB supplemented with 34 μg/mL chloramphenicol, 12.5 μg/mL tetracycline and 15 μg/mL kanamycin by addition of 2 mM IPTG, followed by reduction in incubator temperature to 32° C. and incubation for 4 hours with agitation at […]. Cells were pelleted and resuspended, at 3.5% of the initial culture volume in 10 mM Tris-HCl pH 8, 100 mM NaH2PO4, 8M Urea. Resuspended cells were then frozen in liquid nitrogen, rapidly thawed to 37° C. and sonicated for 10 seconds at an amplitude setting of 60 using a Cole-Parmer CP-130 ultrasonic processor connected to a 3 mm probe. This procedure was repeated three times to effect complete lysis of the cells. Lysates were clarified by spinning twice at 10,000×g in a Sorvall RC-5 centrifuge for 20 minutes at 15° C. Ni-NTA columns (Qiagen Superflow™, 1.5 mL packed bed) were used to purify the CR proteins. Briefly, the resin was equilibrated with two column volumes of lysis buffer. The clarified lysate was then supplemented to 20 mM with imidazole and incubated with the equilibrated Ni-NTA resin overnight at 4° C. The flow-through was discarded. Columns were washed once with one column volume of lysis buffer and then three times with one column volume of TBS pH 8 supplemented with 20 mM imidazole. CR-loaded beads were then removed from the column and CR proteins eluted by incubating at room temperature for 30 minutes with one column volume of the same buffer containing 200 mM imidazole. This step was repeated once and the eluates pooled. Eluted CR protein solutions were then supplemented to 2 M urea, 10 mM CaCl2 and 5 mM DTT. Purified, denatured CR protein solutions were transferred to 3,500 MWCO Slide-A-Lyzer™ (Pierce) cassettes and sequentially dialyzed against a 200-fold excess of 50 mM Tris-HCl pH 8.5, 10 mM CaCl2, 1 mM reduced glutathione, 0.5 mM oxidized glutathione at room temperature overnight and then against TBS supplemented with 5 mM CaCl2 at 4° C. overnight. Protein concentrations were determined by Bradford assay and purity confirmed by SDS-PAGE with Coomassie Brilliant Blue staining.
(§2) Purified, refolded CR protein (1 μg) was bound to Nunc Maxisorp™ 96-well plates in TBS pH 8 supplemented with 5 mM CaCl2 (TBSC) overnight at 4° C. Wells were washed with TBSC and then blocked with TBSC containing 2% bovine serum albumin (BSA). RAP ligands were then incubated with the immobilized receptor at a range of concentrations for 2 hours in the above blocking buffer supplemented with 0.05% Tween-20 at room temperature. Control wells contained no added ligand. As an additional control, to determine whether the absence of calcium affected binding, 10 mM EGTA was included in the incubation medium for some samples. Wells were washed with TBSTC and bound ligands detected with polyclonal anti-RAP (BP41/42, 1:1,000, BioMarin). Excess primary antibody was removed and wells washed before incubation with the secondary antibody, HRP-conjugated goat anti rabbit IgG (Bio-Rad). After washing, TMB substrate solutions (Bio-Rad) were added to detect HRP. Color development was stopped with 1N HCl. Absorption at 450 nm was measured with a microplate spectrophotometer (Molecular Devices). Data were plotted and Kd values derived by non-linear regression with the assumption of single-site binding (GraphPad Prism).
From the large number of CR pairs with unique combinations of amino acids at A, C, A′ and C′ within the calcium-binding loop of each CR, CR pairs or triplets were selected to test their binding to RAP d3 (FIG. 2). An additional pair derived from the FDC-8D6 protein was tested, designated 8D6 CR12, having the sequence ([…]) (SEQ ID NO: 91). […]

Test [1] addresses T2, LRP2 CR89 Y1042W R1088D (WVWD) (Homo sapiens, UniProt P98164, R1089D/Y1043W).
T2 construct: two CR pairs from LRP2 (CR89, CR3435); made in house; host or cells: E. coli BL21(DE3) CodonPlus-RIPL, pET30(+)a
T2 sequence (P98164 1025-1102 Y1043W/R1089D): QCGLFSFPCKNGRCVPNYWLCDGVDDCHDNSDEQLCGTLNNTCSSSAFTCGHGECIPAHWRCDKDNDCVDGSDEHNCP
The experiment in a line: Solid phase binding assay, LRP2 CR89 mutant.
Text: (§3) Each amplified fragment was sequentially digested with BamHI and HindIII and then ligated into similarly digested pET30(+)a. The resulting plasmids encode proteins consisting of N-terminal hexahistidine and S-peptides fused to the CR fragment. Ligation reactions were transformed into XL-Blue MRF′ (Stratagene) by electroporation and plasmids isolated from single colonies. Three mutations, […], V1047D and R1088D, were introduced into the LRP2 CR89 expression plasmid both singly and in combination using Stratagene QuikChange II XL reagents and the primers: […]
as §2
(§4) One premise of this work was that amino acids at A, C, A′ and C′ within the calcium-binding loops of a CR pair were key determinants of binding affinity for RAP and would be similarly important for binding of RAP variants. To test this idea, mutant LRP2 CR89 were prepared in which the native, non-canonical residues at these positions were sequentially substituted with the non-native, canonical residues. As defined above, the A, C, A′, C′ string for LRP2 CR89 is YVWR. Mutants included LRP2 CR89 Y1042W (WVWR), LRP2 CR89 V1047D (YDWR), LRP2 CR89 R1088D (YVWD), LRP2 CR89 V1047D R1088D (YDWD), LRP2 CR89 Y1042W V1047D R1088D (WDWD), LRP2 CR89 Y1042W V1047D (WDWR), LRP2 CR89 Y1042W R1088D (WVWD). Binding to both RAP d3 and MegaRAP1 d3 were measured for each LRP2 CR89 mutant by solid-phase assay. Only the YVWD mutant retained significant binding to MegaRAP1 d3, with an approximate 2-fold loss of affinity relative to LRP2 CR89 (FIG. 6 and Table 3). […] The A′ position in LRP2 CR89 is a tryptophan, the canonical residue for wild-type RAP d3 binding, and was not mutated in our studies.

Test [2] has as its target T3, LRP2 CR89 Y1042W V1047D R1088D (WDWD) (Homo sapiens, UniProt P98164, R1089D/V1048D/Y1043W).
T3 construct: two CR pairs from LRP2 (CR89, CR3435); made in house; host or cells: E. coli BL21(DE3) CodonPlus-RIPL, pET30(+)a
T3 sequence (P98164 1022-1105 Y1043W/V1048D/R1089D): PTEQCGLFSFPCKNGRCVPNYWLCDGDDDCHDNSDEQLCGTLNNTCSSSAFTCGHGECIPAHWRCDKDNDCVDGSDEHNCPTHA
The experiment in a line: Solid phase binding assay, LRP2 CR89 mutant.
Text: as §3, §2, §4

Another test concerns the target T4, LRP2 CR89 (Homo sapiens, UniProt P98164).
T4 construct: two CR pairs from LRP2 (CR89, CR3435); made in house; host or cells: E. coli BL21(DE3) CodonPlus-RIPL, pET30(+)a
The test can be described thus: Solid phase binding assay. How it is done:
as §1, §2

T4 sequence (P98164 1022-1105 limits assumed): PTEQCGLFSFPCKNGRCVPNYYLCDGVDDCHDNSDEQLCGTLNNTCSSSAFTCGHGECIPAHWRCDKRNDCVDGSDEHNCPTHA
T1 sequence (Q07954 852-973): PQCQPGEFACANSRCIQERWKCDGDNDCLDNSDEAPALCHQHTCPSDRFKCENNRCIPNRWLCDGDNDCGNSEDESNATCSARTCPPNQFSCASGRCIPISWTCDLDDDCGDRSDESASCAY

B1: RAP d3: third domain of human RAP, amino acids 201-319 of mature RAP, bacterially expressed with hexahistidine and S-peptide tags (SEQ ID NO: 92) (protein, listed as Homo sapiens)
chain: LDRLRRVSHQGYSTEAEFEEPRVIDLWDLEQSANLTDKELEAFREELKHFEAKIEKHNHYQKQLEIAHEKLRHAESVGDGERVSRSREKHALLEGRTKELGYTVKKHLQDLSGRISRAR
modifications: hexahistidine and S-peptide tags
Regarding B1, the “binding at 80 nM (in words)” value with LRP1 CR3-5 (80 nM ligand, FIG. 7) is recorded as “only bound to LRP1 CR3-5”. The “binding (in words)” value in test [1] and in test [2] was “small increase in binding” throughout. Further, the “binding to LRP2 CR89 (in words)” value with LRP2 CR89 (solid-phase assay) is listed as “no significant affinity”.

B2: MegaRAP1 d3: d3 of RAP variant selected on LRP2 CR89: S213T, E217K, H249Y, E251K, K256A, K270E (SEQ ID NO: 93) (protein, listed as Homo sapiens)
chain: LDRLRRVSHQGYSTEAEFEEPRVIDLWDLEQSANLTDKELEAFREELKHFKAKIEAHNHYQKQLEIAHEDLRHAESVGDGERVSRSREKHALLEGRTKELGYTVKKHLQDLSGRISRAR
With B2, in the test with LRP1 CR3-5 (solid-phase assay), the “binding to LRP1 CR3-5 (in words)” value is reported as “no significant affinity”. For the same molecule, the “binding (in words)” value in test [1] and in test [2] was “failed to bind measurably” in each case. For the same molecule, the “binding at 80 nM (in words)” value with LRP2 CR89 (80 nM ligand, FIG. 7) is given as “bound only to LRP2 CR89”. Moreover, in the test with LRP2 CR89 (solid-phase assay, LRP2 CR89, read-out: apparent dissociation constant (Kd)), the Kd was 0.038 µM.

For the origin of these results see patent US8440629B2, “Cyclic receptor-associated protein (RAP) peptides” (Raptor Pharmaceuticals Inc., priority 2007, dated 2013).
